B1: mutant GATA competitor (dsDNA)
DNA 1: CACTTAGCGACACAAAGTAGCGACTCT
DNA 2: AGAGTCGCTACTTTGTGTCGCTAAGTG
B2: GATA probe, two GATA sites (dsDNA)
DNA 1: CACTTGATAACACAAAGTGATAACTCT
DNA 2: AGAGTTATCACTTTGTGTTATCAAGTG

How the values were obtained:
GATA1 = GATA1 (UniProt P15976 1-413); assay: competition
FAM122A = FAM122A (UniProt Q96E09 1-287); assay: EMSA
FAM122A, sequence (Q96E09 whole entry): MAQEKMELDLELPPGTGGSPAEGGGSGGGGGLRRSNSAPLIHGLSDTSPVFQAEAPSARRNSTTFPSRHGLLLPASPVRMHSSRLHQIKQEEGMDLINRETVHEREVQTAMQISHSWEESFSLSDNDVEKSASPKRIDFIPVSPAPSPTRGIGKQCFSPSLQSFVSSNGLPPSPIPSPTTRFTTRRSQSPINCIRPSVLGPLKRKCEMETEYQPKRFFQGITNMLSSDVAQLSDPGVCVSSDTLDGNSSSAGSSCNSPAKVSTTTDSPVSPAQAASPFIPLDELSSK

GATA1, sequence (P15976 whole entry): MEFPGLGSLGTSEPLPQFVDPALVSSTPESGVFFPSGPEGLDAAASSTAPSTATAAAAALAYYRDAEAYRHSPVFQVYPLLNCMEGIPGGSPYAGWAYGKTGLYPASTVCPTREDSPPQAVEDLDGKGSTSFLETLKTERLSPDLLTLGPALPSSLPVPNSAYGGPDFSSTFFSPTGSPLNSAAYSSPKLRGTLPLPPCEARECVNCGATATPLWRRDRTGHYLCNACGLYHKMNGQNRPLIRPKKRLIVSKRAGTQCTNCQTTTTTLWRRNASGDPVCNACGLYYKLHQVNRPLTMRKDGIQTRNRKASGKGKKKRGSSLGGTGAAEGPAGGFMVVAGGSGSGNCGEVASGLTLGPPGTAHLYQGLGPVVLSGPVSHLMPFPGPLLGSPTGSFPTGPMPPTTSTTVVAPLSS

Binder | binding result (GATA1) | binding result (FAM122A)
B1 | no binding | 
B2 |  | no binding
